± gives the standard error. For part of these data: Variants at the floor of the assay were thinned out.
B1: glmS ribozyme (parent)
chain: AUAAAAGCGCCAGAACUACAGAAAUGUAGUUGACGAGGAGGAGGUUUAUCGAAUUUUCGGCGGAUGCCUCCAAA

Tests used:
Conditions in all cases: with glucosamine-6-phosphate
glucosamine-6-phosphate [1] = variants of: B1; experiment: kcat; higher = faster cleavage; RNA array
In short: (§1)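 A hybridised Cy3 probe tracked barcoded ribozyme variants, transcribed in situ by E. coli RNA polymerase on sequenced MiSeq chips, at 37 °C. The variants received 40 μM to 10 mM glucosamine-6-phosphate in HEPES/KCl/Mg(OAc)2 buffer. kobs came from decay fits and kcat and KM from weighted Michaelis–Menten fits.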

glucosamine-6-phosphate [2] = variants of: B1; experiment: KM; higher = weaker cofactor use; RNA array
In short: as §1

glucosamine-6-phosphate [3] = variants of: B1; experiment: self-cleavage kobs at 10000 uM GlcN6P; higher = faster cleavage; RNA array
In short: as §1

glucosamine-6-phosphate [4] = variants of: B1; experiment: self-cleavage kobs at 640 uM GlcN6P; higher = faster cleavage; RNA array
In short: as §1

glucosamine-6-phosphate [5] = variants of: B1; experiment: self-cleavage kobs at 2500 uM GlcN6P; higher = faster cleavage; RNA array
In short: as §1

glucosamine-6-phosphate [6] = variants of: B1; experiment: self-cleavage kobs at 40 uM GlcN6P; higher = faster cleavage; RNA array
In short: as §1

glucosamine-6-phosphate [7] = variants of: B1; experiment: self-cleavage kobs at 160 uM GlcN6P; higher = faster cleavage; RNA array
In short: as §1

Row | Variant | kcat (glucosamine-6-phosphate [1]) [s⁻¹] | KM (glucosamine-6-phosphate [2]) [µM] | self-cleavage kobs at 10000 uM GlcN6P (glucosamine-6-phosphate [3]) [s⁻¹] | self-cleavage kobs at 640 uM GlcN6P (glucosamine-6-phosphate [4]) [s⁻¹] | self-cleavage kobs at 2500 uM GlcN6P (glucosamine-6-phosphate [5]) [s⁻¹] | self-cleavage kobs at 40 uM GlcN6P (glucosamine-6-phosphate [6]) [s⁻¹] | self-cleavage kobs at 160 uM GlcN6P (glucosamine-6-phosphate [7]) [s⁻¹]
1 | C16G A52U | 0.00015 ± 2.4e-05 | 7790 ± 2700 | 8.41e-05 ± 1.5e-05 | – | – | – | –
2 | C16U U46A U54G C70A | 0.000156 ± 2.4e-05 | 743 ± 300 | 0.000124 ± 5e-05 | 6.86e-05 ± 2.2e-05 | 0.000143 ± 3.9e-05 | – | –
3 | C16U U45G | 0.00669 ± 0.00062 | 2070 ± 280 | 0.00593 ± 0.001 | 0.00156 ± 0.00026 | 0.00321 ± 0.00074 | 0.000135 ± 2.4e-05 | 0.000468 ± 0.00016
4 | C16U U45C | 0.00254 ± 0.00049 | 2290 ± 700 | 0.00203 ± 0.0003 | 0.000496 ± 0.0001 | 0.00224 ± 0.0007 | 4.44e-05 ± 1.1e-05 | 0.000307 ± 0.00014
5 | A15U A53C | 0.000734 ± 0.00026 | – | 0.000636 ± 0.00012 | 0.000643 ± 0.00016 | – | – | 0.00014 ± 4.7e-05
6 | A15U U56C | 0.00101 ± 4.2e-05 | 2320 ± 150 | 0.0008 ± 9.1e-05 | 0.000221 ± 2.7e-05 | 0.000551 ± 6.9e-05 | – | 6.26e-05 ± 9.4e-06
7 | C16U C50G A53U U55A | 3.66e-05 ± 1e-05 | – | – | 4.65e-05 ± 2.2e-05 | – | – | –
8 | C16A A36C C71A | < 1e-05 | – | < 1e-05 | – | – | – | –
9 | C16G C68G | 1.82e-05 ± 5.5e-06 | – | – | – | – | – | –
10 | C16G C68A | 2.15e-05 ± 6.1e-06 | – | – | – | – | – | –
11 | C16G C68U | 0.000168 ± 6e-06 | 778 ± 79 | 0.00016 ± 2.3e-05 | 7.49e-05 ± 1.2e-05 | 0.000125 ± 1.6e-05 | – | 3.33e-05 ± 1.5e-05
12 | A15G U57C | 0.000143 ± 1.4e-05 | 2200 ± 520 | 0.000113 ± 1.7e-05 | 2.79e-05 ± 9.6e-06 | 8.09e-05 ± 1.2e-05 | – | –
13 | A15G U57G | 9.24e-05 ± 1.1e-05 | 2500 ± 1200 | 7.35e-05 ± 1.2e-05 | – | 5.11e-05 ± 2.2e-05 | – | –
14 | A15U A52C | < 1e-05 | 537 ± 110 | – | < 1e-05 | – | < 1e-05 | < 1e-05
15 | A15U A52G | 0.00041 ± 2.6e-05 | 2270 ± 280 | 0.000331 ± 4.6e-05 | 8.94e-05 ± 1.6e-05 | 0.000222 ± 3.6e-05 | – | –
16 | A15U A48C | 2.45e-05 ± 3.9e-06 | – | – | – | – | – | –
17 | C16G A33C | 4.59e-05 ± 3.9e-06 | – | 4.28e-05 ± 1.3e-05 | – | 3.96e-05 ± 1.6e-05 | < 1e-05 | –
18 | C16G U47G C50G C68G | 1.23e-05 ± 1.9e-06 | – | – | – | – | – | –
19 | C16U A42C | 1.1e-05 ± 6.5e-07 | – | – | – | – | – | –
20 | C16A C50U | < 1e-05 | – | – | – | – | < 1e-05 | –
